Measurements reported in patent US20170355766A1 (Xencor, published 2017).
Substitutions are numbered along the chain they refer to. Names and notes keep the numbering of the source.

B1: S267E/A327D (antibody, human IgG1, kappa)
heavy: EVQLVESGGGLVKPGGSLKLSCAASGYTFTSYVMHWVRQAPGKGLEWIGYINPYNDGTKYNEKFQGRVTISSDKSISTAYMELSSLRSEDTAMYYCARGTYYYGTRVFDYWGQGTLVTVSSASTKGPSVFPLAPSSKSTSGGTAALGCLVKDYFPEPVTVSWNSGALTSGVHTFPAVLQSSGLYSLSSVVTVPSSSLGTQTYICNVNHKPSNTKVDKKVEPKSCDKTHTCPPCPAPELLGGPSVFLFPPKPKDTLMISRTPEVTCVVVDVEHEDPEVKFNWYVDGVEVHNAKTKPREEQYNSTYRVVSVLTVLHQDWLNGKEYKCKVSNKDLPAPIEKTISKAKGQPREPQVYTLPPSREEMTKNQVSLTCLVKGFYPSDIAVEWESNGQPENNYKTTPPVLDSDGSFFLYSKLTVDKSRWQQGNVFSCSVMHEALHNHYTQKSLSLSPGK
light: DIVMTQSPATLSLSPGERATLSCRSSKSLQNVNGNTYLYWFQQKPGQSPQLLIYRMSNLNSGVPDRFSGSGSGTEFTLTISSLEPEDFAVYYCMQHLEYPITFGAGTKLEIKRTVAAPSVFIFPPSDEQLKSGTASVVCLLNNFYPREAKVQWKVDNALQSGNSQESVTEQDSKDSTYSLSSTLTLSKADYEKHKVYACEVTHQGLSSPVTKSFNRGEC
notes: HuAM4G7 IgG1 Fc variant
B2: A327G (antibody, human IgG1, kappa)
heavy: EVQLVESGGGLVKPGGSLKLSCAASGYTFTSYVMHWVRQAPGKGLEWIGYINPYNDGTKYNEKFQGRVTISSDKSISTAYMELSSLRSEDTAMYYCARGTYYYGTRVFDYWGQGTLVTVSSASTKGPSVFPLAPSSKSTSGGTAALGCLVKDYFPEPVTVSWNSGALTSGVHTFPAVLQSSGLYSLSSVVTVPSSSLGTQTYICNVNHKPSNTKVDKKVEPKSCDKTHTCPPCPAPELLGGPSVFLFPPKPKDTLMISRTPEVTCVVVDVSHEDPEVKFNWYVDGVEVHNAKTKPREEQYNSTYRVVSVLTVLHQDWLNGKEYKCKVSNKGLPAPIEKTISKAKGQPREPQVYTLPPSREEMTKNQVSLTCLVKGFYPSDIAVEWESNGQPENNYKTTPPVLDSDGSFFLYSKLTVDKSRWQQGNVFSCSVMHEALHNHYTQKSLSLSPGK
light: B1 light
notes: HuAM4G7 IgG1 Fc variant
B3: S267E/N325L (antibody, human IgG1, kappa)
heavy: not shown
light: B1 light
notes: HuAM4G7 IgG1 Fc variant
B4: S298D (antibody, human IgG1, kappa)
heavy: not shown
light: B1 light
notes: HuAM4G7 IgG1 Fc variant
B5: V266D (antibody, human IgG1, kappa)
heavy: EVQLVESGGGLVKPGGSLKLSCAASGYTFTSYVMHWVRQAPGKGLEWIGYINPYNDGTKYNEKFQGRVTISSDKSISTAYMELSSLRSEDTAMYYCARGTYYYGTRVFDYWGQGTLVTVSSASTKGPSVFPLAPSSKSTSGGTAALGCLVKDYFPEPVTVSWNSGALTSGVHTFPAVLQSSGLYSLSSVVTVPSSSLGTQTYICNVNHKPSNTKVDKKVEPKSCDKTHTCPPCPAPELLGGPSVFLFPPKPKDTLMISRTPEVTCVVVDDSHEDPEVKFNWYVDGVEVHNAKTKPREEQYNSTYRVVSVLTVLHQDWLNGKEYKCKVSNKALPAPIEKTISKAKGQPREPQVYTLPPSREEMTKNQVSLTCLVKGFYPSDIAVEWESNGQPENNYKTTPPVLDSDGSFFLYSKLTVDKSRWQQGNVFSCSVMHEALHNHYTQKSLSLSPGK
light: B1 light
notes: HuAM4G7 IgG1 Fc variant
B6: G236E/S267E (antibody, human IgG1, kappa)
heavy: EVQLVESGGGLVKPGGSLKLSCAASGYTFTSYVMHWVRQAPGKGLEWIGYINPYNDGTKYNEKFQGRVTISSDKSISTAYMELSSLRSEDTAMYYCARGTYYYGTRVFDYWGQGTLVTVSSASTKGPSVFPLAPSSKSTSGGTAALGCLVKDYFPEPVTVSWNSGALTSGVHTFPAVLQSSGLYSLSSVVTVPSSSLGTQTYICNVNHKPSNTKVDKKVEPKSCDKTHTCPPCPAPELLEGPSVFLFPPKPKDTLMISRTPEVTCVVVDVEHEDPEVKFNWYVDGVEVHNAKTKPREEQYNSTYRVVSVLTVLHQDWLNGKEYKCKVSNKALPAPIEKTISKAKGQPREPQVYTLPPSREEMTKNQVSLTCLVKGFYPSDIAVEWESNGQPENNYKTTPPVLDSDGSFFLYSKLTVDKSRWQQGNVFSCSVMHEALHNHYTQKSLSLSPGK
light: B1 light
notes: HuAM4G7 IgG1 Fc variant
B7: G236M (antibody, human IgG1, kappa)
heavy: not shown
light: B1 light
notes: HuAM4G7 IgG1 Fc variant
B8: S267E/L328I (antibody, human IgG1, kappa)
heavy: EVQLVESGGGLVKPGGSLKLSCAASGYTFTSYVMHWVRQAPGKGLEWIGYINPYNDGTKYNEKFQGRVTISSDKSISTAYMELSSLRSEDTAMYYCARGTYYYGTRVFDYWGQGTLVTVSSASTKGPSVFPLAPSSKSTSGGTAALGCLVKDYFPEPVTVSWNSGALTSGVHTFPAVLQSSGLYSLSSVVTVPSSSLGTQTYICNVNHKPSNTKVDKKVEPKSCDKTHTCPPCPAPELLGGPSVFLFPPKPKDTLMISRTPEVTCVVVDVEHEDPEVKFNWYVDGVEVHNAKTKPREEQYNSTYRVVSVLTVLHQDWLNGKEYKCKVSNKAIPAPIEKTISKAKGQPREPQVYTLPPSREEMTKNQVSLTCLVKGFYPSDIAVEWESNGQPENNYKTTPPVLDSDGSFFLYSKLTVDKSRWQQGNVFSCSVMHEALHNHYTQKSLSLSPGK
light: B1 light
notes: HuAM4G7 IgG1 Fc variant
B9: L235E (antibody, human IgG1, kappa)
heavy: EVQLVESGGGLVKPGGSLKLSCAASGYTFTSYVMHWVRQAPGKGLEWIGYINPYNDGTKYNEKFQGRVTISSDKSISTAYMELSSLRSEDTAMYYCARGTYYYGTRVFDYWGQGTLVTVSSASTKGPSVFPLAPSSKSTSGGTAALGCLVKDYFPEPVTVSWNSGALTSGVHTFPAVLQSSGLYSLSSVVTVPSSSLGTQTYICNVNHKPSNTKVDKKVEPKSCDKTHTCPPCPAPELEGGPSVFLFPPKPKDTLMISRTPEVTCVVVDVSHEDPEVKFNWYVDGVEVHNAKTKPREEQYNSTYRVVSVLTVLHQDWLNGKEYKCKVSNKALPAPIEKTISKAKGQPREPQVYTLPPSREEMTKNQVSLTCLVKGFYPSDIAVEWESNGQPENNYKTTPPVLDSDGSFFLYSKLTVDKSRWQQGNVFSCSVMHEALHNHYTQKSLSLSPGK
light: B1 light
notes: HuAM4G7 IgG1 Fc variant
B10: S239N (antibody, human IgG1, kappa)
heavy: not shown
light: B1 light
notes: HuAM4G7 IgG1 Fc variant
B11: G237S (antibody, human IgG1, kappa)
heavy: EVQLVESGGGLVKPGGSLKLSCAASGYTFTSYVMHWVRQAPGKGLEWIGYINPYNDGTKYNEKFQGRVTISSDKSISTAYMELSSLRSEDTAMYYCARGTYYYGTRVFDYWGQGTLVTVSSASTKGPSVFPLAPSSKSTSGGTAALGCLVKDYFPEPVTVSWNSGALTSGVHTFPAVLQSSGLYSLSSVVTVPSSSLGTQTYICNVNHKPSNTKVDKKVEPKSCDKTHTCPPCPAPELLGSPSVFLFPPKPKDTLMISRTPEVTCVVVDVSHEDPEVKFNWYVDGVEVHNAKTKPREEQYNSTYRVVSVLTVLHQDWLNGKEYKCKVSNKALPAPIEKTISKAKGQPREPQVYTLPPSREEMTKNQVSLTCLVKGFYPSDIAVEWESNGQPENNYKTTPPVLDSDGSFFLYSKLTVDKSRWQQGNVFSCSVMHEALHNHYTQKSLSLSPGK
light: B1 light
notes: HuAM4G7 IgG1 Fc variant
B12: L235T/S267E (antibody, human IgG1, kappa)
heavy: not shown
light: B1 light
notes: HuAM4G7 IgG1 Fc variant
B13: L234D/G236N/S267E (antibody, human IgG1, kappa)
heavy: EVQLVESGGGLVKPGGSLKLSCAASGYTFTSYVMHWVRQAPGKGLEWIGYINPYNDGTKYNEKFQGRVTISSDKSISTAYMELSSLRSEDTAMYYCARGTYYYGTRVFDYWGQGTLVTVSSASTKGPSVFPLAPSSKSTSGGTAALGCLVKDYFPEPVTVSWNSGALTSGVHTFPAVLQSSGLYSLSSVVTVPSSSLGTQTYICNVNHKPSNTKVDKKVEPKSCDKTHTCPPCPAPEDLNGPSVFLFPPKPKDTLMISRTPEVTCVVVDVEHEDPEVKFNWYVDGVEVHNAKTKPREEQYNSTYRVVSVLTVLHQDWLNGKEYKCKVSNKALPAPIEKTISKAKGQPREPQVYTLPPSREEMTKNQVSLTCLVKGFYPSDIAVEWESNGQPENNYKTTPPVLDSDGSFFLYSKLTVDKSRWQQGNVFSCSVMHEALHNHYTQKSLSLSPGK
light: B1 light
notes: HuAM4G7 IgG1 Fc variant
B14: L234G (antibody, human IgG1, kappa)
heavy: not shown
light: B1 light
notes: HuAM4G7 IgG1 Fc variant
B15: H268N (antibody, human IgG1, kappa)
heavy: not shown
light: B1 light
notes: HuAM4G7 IgG1 Fc variant
B16: G236Q (antibody, human IgG1, kappa)
heavy: not shown
light: B1 light
notes: HuAM4G7 IgG1 Fc variant
B17: L234W/S239E/S267E (antibody, human IgG1, kappa)
heavy: B13 heavy with D238W, N240G, S243E
light: B1 light
notes: HuAM4G7 IgG1 Fc variant
B18: G237Q (antibody, human IgG1, kappa)
heavy: not shown
light: B1 light
notes: HuAM4G7 IgG1 Fc variant
B19: G237Y (antibody, human IgG1, kappa)
heavy: not shown
light: B1 light
notes: HuAM4G7 IgG1 Fc variant
B20: L235H (antibody, human IgG1, kappa)
heavy: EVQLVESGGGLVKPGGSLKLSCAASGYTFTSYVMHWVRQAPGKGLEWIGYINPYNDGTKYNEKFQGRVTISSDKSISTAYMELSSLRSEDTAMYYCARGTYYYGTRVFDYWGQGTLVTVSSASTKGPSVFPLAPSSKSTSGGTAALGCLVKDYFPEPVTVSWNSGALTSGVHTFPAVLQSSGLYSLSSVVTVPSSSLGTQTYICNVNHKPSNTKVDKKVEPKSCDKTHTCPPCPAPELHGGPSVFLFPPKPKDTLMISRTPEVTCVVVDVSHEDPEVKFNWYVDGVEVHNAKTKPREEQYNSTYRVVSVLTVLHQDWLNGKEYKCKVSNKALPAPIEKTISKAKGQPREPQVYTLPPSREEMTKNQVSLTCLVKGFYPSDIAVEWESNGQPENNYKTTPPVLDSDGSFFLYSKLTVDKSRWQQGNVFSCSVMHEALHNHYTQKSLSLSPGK
light: B1 light
notes: HuAM4G7 IgG1 Fc variant
B21: L234Q (antibody, human IgG1, kappa)
heavy: not shown
light: B1 light
notes: HuAM4G7 IgG1 Fc variant
B22: G236P (antibody, human IgG1, kappa)
heavy: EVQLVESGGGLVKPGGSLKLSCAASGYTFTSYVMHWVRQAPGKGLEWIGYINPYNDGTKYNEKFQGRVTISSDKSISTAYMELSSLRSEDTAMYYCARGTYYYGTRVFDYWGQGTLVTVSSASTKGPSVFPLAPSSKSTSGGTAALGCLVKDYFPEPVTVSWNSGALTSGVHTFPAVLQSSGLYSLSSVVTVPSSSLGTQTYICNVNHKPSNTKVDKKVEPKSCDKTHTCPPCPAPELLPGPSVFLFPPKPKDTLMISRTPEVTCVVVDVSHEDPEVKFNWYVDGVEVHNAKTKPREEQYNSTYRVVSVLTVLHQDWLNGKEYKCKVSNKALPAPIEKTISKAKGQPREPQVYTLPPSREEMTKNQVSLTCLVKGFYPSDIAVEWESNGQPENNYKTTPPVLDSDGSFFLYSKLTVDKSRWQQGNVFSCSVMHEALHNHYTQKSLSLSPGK
light: B1 light
notes: HuAM4G7 IgG1 Fc variant
B23: L234I (antibody, human IgG1, kappa)
heavy: not shown
light: B1 light
notes: HuAM4G7 IgG1 Fc variant
B24: G236H (antibody, human IgG1, kappa)
heavy: not shown
light: B1 light
notes: HuAM4G7 IgG1 Fc variant
B25: S267E/L328H (antibody, human IgG1, kappa)
heavy: not shown
light: B1 light
notes: HuAM4G7 IgG1 Fc variant
B26: P329E (antibody, human IgG1, kappa)
heavy: not shown
light: B1 light
notes: HuAM4G7 IgG1 Fc variant
B27: D265E (antibody, human IgG1, kappa)
heavy: not shown
light: B1 light
notes: HuAM4G7 IgG1 Fc variant
B28: G237V (antibody, human IgG1, kappa)
heavy: not shown
light: B1 light
notes: HuAM4G7 IgG1 Fc variant
B29: L234Y (antibody, human IgG1, kappa)
heavy: not shown
light: B1 light
notes: HuAM4G7 IgG1 Fc variant
B30: G236W (antibody, human IgG1, kappa)
heavy: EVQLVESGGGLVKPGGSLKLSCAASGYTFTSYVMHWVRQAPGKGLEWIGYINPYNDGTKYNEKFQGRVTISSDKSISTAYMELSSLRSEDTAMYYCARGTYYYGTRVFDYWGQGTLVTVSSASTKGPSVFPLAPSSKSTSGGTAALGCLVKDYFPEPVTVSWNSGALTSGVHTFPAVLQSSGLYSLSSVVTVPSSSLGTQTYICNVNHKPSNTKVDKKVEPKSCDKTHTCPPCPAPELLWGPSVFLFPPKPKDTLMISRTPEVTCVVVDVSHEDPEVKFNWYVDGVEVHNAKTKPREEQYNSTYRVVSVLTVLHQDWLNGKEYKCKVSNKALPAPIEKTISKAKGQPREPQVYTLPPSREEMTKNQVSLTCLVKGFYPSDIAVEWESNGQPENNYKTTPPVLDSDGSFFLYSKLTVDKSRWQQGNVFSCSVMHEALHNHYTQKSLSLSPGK
light: B1 light
notes: HuAM4G7 IgG1 Fc variant
B31: L234P (antibody, human IgG1, kappa)
heavy: not shown
light: B1 light
notes: HuAM4G7 IgG1 Fc variant
B32: L234V (antibody, human IgG1, kappa)
heavy: not shown
light: B1 light
notes: HuAM4G7 IgG1 Fc variant
B33: L234W/G236D/S239E/S267E (antibody, human IgG1, kappa)
heavy: B13 heavy with D238W, N240D, S243E
light: B1 light
notes: HuAM4G7 IgG1 Fc variant
B34: L235R (antibody, human IgG1, kappa)
heavy: not shown
light: B1 light
notes: HuAM4G7 IgG1 Fc variant
B35: L234S (antibody, human IgG1, kappa)
heavy: not shown
light: B1 light
notes: HuAM4G7 IgG1 Fc variant
B36: A327Q (antibody, human IgG1, kappa)
heavy: not shown
light: B1 light
notes: HuAM4G7 IgG1 Fc variant
B37: S239Q (antibody, human IgG1, kappa)
heavy: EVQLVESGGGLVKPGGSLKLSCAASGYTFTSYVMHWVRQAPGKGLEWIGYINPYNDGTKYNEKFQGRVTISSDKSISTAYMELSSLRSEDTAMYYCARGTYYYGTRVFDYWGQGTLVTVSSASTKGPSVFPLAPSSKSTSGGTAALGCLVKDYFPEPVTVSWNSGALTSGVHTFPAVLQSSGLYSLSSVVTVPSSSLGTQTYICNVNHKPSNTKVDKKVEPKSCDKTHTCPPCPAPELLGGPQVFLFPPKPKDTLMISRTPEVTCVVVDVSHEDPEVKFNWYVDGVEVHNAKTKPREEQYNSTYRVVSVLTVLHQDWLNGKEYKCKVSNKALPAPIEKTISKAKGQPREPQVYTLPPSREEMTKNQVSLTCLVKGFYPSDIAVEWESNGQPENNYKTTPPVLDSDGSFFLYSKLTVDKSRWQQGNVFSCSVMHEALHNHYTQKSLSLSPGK
light: B1 light
notes: HuAM4G7 IgG1 Fc variant
B38: L235Q (antibody, human IgG1, kappa)
heavy: not shown
light: B1 light
notes: HuAM4G7 IgG1 Fc variant

target: T1, human FcγRI receptor protein (R&D Systems) (human, UniProt P12314 16-288); assay: SPR (Biacore)
T1 construct: also called CD64

| Binder | Fold FcγRI [fold] |
| --- | --- |
| B1 | 1.66 |

target: T2, human FcγRIIb receptor protein (R&D Systems) (human, UniProt P31994 46-217); assay: SPR (Biacore)
T2 construct: Analyte injected over antibodies captured on a protein A/G chip (Biacore); also called CD32b
T2 sequence (looked up): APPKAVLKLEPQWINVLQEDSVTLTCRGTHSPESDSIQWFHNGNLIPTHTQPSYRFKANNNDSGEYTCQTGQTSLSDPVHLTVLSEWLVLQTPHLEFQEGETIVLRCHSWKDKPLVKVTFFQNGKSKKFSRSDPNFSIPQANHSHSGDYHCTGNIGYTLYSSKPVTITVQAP

| Binder | Fold FcγRIIb [fold] | binding result |
| --- | --- | --- |
| B2 | 0.353 |  |
| B3 | 31.5 |  |
| B4 | 0.797 |  |
| B5 | 0.147 |  |
| B6 | 11.4 |  |
| B7 | 0.147 |  |
| B8 | 53.4 |  |
| B9 | 0.55 |  |
| B10 | 1.45 |  |
| B11 | 0.147 |  |
| B12 | 2.37 |  |
| B13 | 5.11 |  |
| B14 | 0.147 |  |
| B15 | 1.17 |  |
| B16 | 0.147 |  |
| B17 | 42.3 |  |
| B18 | 0.147 |  |
| B19 | 0.33 |  |
| B20 | 0.734 |  |

| Binder | Fold FcγRIIb [fold] | binding result |
| --- | --- | --- |
| B21 | 0.147 |  |
| B22 | 0.147 |  |
| B23 | 0.108 |  |
| B24 |  | no binding |
| B25 | 5.17 |  |
| B26 | 0.147 |  |
| B27 | 0.417 |  |
| B28 | 0.147 |  |
| B29 | 0.0237 |  |
| B30 | 0.147 |  |
| B31 | 0.0644 |  |
| B32 | 0.456 |  |
| B33 | 11.4 |  |
| B34 | 5.58 |  |
| B35 | 0.192 |  |
| B1 | 21.2 |  |
| B36 | 0.011 |  |
| B37 | 0.729 |  |

target: T3, FcγRIIaR (human, UniProt P12318); assay: SPR (Biacore)
T3 construct: recombinant receptor protein with 6xHis and GST tags; also called R131 FcγRIIa
T3 sequence (receptor, looked up): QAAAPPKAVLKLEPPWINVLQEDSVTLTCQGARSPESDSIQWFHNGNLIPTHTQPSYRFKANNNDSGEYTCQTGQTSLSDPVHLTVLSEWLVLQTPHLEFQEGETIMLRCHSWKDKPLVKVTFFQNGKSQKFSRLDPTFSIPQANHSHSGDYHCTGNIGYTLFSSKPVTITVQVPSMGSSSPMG

| Binder | Fold FcγRIIaR [fold] |
| --- | --- |
| B2 | 0.319 |
| B3 | 41.5 |
| B4 | 1.45 |
| B5 | 0.704 |
| B6 | 36.5 |
| B7 | 0.0859 |
| B8 | 74 |
| B9 | 0.333 |
| B10 | 0.867 |
| B11 | 0.081 |
| B12 | 3.06 |
| B13 | 0.728 |
| B14 | 0.0859 |
| B15 | 1.79 |
| B16 | 0.0859 |
| B17 | 98.5 |
| B18 | 0.0859 |
| B19 | 0.902 |
| B20 | 0.756 |

| Binder | Fold FcγRIIaR [fold] |
| --- | --- |
| B21 | 0.0372 |
| B22 | 0.0859 |
| B23 | 0.0554 |
| B24 | 0.135 |
| B25 | 4.64 |
| B26 | 0.0859 |
| B27 | 0.307 |
| B28 | 0.0342 |
| B29 | 0.0511 |
| B30 | 0.0859 |
| B31 | 0.0141 |
| B32 | 0.134 |
| B33 | 5.69 |
| B34 | 1.02 |
| B38 | 2.04 |
| B35 | 0.693 |
| B1 | 16.7 |
| B36 | 0.634 |
| B37 | 0.853 |
